US11965039B2, “Compstatin analogues and their medical uses” (priority 2018, dated 2024)
Starred links: 1 amine or outer side, 2 acyl side, 3 side chain; linkers in the order of their positions; H or OH if unused. Positions of bridges follow the written chain, without caps; N, C: chain ends. Non-standard residues stand in square brackets, D forms with d. Groups on a side chain read outwards from the residue. *: point of attachment. Trp(1-Me) = Cn1cc(C[C@H](N)C(=O)O)c2ccccc21; C16 diacid = O=C(O)CCCCCCCCCCCCCCC(=O)*; γGlu = O=C(O)[C@H](CCC(=O)[*:2])N[*:1]; AEEA = NCCOCCOCC(=O)O; Sar = CNCC(=O)O

Target: T1, Human C3 (Complement tech cat #A113c) (human, UniProt P01024 23-1663)
T1 construct: Purified protein immobilised by amine coupling in the SPR assay; in the haemolysis assay it is the C3 of diluted human serum; Native C3 consists of a beta and an alpha chain cut from one precursor; also called C3 protein
Assay: SPR (Biacore T200), human C3 immobilised, peptide injected, 1:1 fit
Description: Surface plasmon resonance (SPR) was used to characterize peptides with respect to their binding affinity (Kd) for C3. Human C3 (Complement tech cat #A113c) was immobilised on individual flow cells of CM5 sensor chips (GE Healthcare) using standard amine coupling to a density of approximately 3000 resonance units (RU) in a buffer consisting of 10 mM phosphate pH 7.4, 150 mM NaCl, 0.05% Tween20.
For interaction experiments a multi-cycle experiment approach was used and performed using a BiacoreT200™ instrument (GE Healthcare) at 25° C. Peptides were injected in increasing concentration series (6-8 different concentrations) for 60-120 sat a flow rate of 30 µL/min in a buffer consisting of 10 mM Tris buffer at pH 7.4, with 150 mM NaCl and 0.05% Tween20. This was followed by a dissociation period for up to 10 min. The C3 surface was regenerated between runs by a 45 s injection of 3 M MgCl_2.

T1 sequence (P01024 23-1663 limits assumed): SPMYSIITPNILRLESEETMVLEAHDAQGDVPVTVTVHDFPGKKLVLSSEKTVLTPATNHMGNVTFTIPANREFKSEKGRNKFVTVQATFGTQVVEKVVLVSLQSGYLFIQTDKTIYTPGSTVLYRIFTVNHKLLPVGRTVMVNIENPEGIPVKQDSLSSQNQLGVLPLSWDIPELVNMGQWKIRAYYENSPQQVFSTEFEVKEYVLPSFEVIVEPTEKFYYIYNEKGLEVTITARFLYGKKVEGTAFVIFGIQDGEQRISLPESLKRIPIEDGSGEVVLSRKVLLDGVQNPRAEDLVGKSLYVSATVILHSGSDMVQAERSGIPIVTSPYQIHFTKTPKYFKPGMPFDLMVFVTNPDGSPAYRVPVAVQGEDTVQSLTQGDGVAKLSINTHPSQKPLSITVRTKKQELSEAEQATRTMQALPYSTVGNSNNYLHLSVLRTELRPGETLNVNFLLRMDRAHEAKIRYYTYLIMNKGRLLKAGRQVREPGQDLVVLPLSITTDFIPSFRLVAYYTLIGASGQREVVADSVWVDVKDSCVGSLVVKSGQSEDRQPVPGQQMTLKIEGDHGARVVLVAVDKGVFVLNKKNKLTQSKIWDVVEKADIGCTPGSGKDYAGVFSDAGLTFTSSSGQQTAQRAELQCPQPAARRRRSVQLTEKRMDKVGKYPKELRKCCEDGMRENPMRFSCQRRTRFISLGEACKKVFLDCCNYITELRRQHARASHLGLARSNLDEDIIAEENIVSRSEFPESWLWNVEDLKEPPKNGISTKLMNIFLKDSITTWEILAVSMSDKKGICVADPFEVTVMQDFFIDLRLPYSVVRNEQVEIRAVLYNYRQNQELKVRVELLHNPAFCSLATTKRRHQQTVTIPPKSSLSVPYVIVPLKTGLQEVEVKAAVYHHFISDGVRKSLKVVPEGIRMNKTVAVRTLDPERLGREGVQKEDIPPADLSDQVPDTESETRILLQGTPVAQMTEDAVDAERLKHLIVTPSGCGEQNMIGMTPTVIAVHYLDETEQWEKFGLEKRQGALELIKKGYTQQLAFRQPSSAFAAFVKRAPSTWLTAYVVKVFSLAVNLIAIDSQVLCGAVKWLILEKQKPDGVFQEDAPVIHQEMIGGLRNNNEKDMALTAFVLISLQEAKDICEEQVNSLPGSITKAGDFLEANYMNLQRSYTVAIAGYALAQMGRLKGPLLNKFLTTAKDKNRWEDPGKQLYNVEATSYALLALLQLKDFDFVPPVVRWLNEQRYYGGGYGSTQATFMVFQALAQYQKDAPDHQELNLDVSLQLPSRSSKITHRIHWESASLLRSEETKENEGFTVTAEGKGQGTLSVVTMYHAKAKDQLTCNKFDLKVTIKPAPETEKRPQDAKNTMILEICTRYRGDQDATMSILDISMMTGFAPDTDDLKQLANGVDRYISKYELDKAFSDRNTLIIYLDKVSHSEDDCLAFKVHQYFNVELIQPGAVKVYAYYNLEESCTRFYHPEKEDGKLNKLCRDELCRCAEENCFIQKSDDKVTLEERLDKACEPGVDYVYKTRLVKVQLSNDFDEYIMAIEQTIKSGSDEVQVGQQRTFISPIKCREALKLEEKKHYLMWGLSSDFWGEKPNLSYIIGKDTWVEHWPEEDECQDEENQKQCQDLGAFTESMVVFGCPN

Row | Binder | Kd
1 | Ac-ICI[Trp(1-Me)]QDWGEHRCT-NH2 (disulfide 2-12; SMILES CC[C@H](C)[C@H](NC(C)=O)C(=O)N[C@H]1CSSC[C@@H](C(=O)N[C@H](C(N)=O)[C@@H](C)O)NC(=O)[C@H](CCCNC(=N)N)NC(=O)[C@H](Cc2c[nH]cn2)NC(=O)[C@H](CCC(=O)O)NC(=O)CNC(=O)[C@H](Cc2c[nH]c3ccccc23)NC(=O)[C@H](CC(=O)O)NC(=O)[C@H](CCC(N)=O)NC(=O)[C@H](Cc2cn(C)c3ccccc23)NC(=O)[C@H]([C@@H](C)CC)NC1=O) [Compound 4] | 1.5 nM
2 | Ac-FCI[Trp(1-Me)]QDWGEHRCTGAESK([AEEA-AEEA-γGlu-C16 diacid])-NH2 (disulfide 2-12; SMILES CC[C@H](C)[C@@H]1NC(=O)[C@@H](NC(=O)[C@H](Cc2ccccc2)NC(C)=O)CSSC[C@@H](C(=O)N[C@H](C(=O)NCC(=O)N[C@@H](C)C(=O)N[C@@H](CCC(=O)O)C(=O)N[C@@H](CO)C(=O)N[C@@H](CCCCNC(=O)COCCOCCNC(=O)COCCOCCNC(=O)CC[C@H](NC(=O)CCCCCCCCCCCCCCC(=O)O)C(=O)O)C(N)=O)[C@@H](C)O)NC(=O)[C@H](CCCNC(=N)N)NC(=O)[C@H](Cc2c[nH]cn2)NC(=O)[C@H](CCC(=O)O)NC(=O)CNC(=O)[C@H](Cc2c[nH]c3ccccc23)NC(=O)[C@H](CC(=O)O)NC(=O)[C@H](CCC(N)=O)NC(=O)[C@H](Cc2cn(C)c3ccccc23)NC1=O) [Compound 102] | 1.7 nM

Target: T1, Human C3 (Complement tech cat #A113c)
Assay: cell-based or functional assay

Row | Binder | inhibition of hemolysis IC50
3 | Ac-GEFCI[Trp(1-Me)]QDWGEHRC[Sar]EA-NH2 (disulfide 4-14; SMILES CC[C@H](C)[C@@H]1NC(=O)[C@@H](NC(=O)[C@H](Cc2ccccc2)NC(=O)[C@H](CCC(=O)O)NC(=O)CNC(C)=O)CSSC[C@@H](C(=O)N(C)CC(=O)N[C@@H](CCC(=O)O)C(=O)N[C@@H](C)C(N)=O)NC(=O)[C@H](CCCNC(=N)N)NC(=O)[C@H](Cc2c[nH]cn2)NC(=O)[C@H](CCC(=O)O)NC(=O)CNC(=O)[C@H](Cc2c[nH]c3ccccc23)NC(=O)[C@H](CC(=O)O)NC(=O)[C@H](CCC(N)=O)NC(=O)[C@H](Cc2cn(C)c3ccccc23)NC1=O) [Compound 87] | < 100 nM
4 | Ac-SE[Sar]CI[Trp(1-Me)]QEW[Sar]EHRCTEA-NH2 (disulfide 4-14; SMILES CC[C@H](C)[C@@H]1NC(=O)[C@@H](NC(=O)CN(C)C(=O)[C@H](CCC(=O)O)NC(=O)[C@H](CO)NC(C)=O)CSSC[C@@H](C(=O)N[C@H](C(=O)N[C@@H](CCC(=O)O)C(=O)N[C@@H](C)C(N)=O)[C@@H](C)O)NC(=O)[C@H](CCCNC(=N)N)NC(=O)[C@H](Cc2c[nH]cn2)NC(=O)[C@H](CCC(=O)O)NC(=O)CN(C)C(=O)[C@H](Cc2c[nH]c3ccccc23)NC(=O)[C@H](CCC(=O)O)NC(=O)[C@H](CCC(N)=O)NC(=O)[C@H](Cc2cn(C)c3ccccc23)NC1=O) [Compound 89] | < 100 nM
5 | Ac-SEFCI[Trp(1-Me)]QEWGEHRC[Sar]EA-NH2 (disulfide 4-14; SMILES CC[C@H](C)[C@@H]1NC(=O)[C@@H](NC(=O)[C@H](Cc2ccccc2)NC(=O)[C@H](CCC(=O)O)NC(=O)[C@H](CO)NC(C)=O)CSSC[C@@H](C(=O)N(C)CC(=O)N[C@@H](CCC(=O)O)C(=O)N[C@@H](C)C(N)=O)NC(=O)[C@H](CCCNC(=N)N)NC(=O)[C@H](Cc2c[nH]cn2)NC(=O)[C@H](CCC(=O)O)NC(=O)CNC(=O)[C@H](Cc2c[nH]c3ccccc23)NC(=O)[C@H](CCC(=O)O)NC(=O)[C@H](CCC(N)=O)NC(=O)[C@H](Cc2cn(C)c3ccccc23)NC1=O) [Compound 83] | < 100 nM
6 | Ac-ICI[Trp(1-Me)]QDWGEHRCT-NH2 (disulfide 2-12; SMILES CC[C@H](C)[C@H](NC(C)=O)C(=O)N[C@H]1CSSC[C@@H](C(=O)N[C@H](C(N)=O)[C@@H](C)O)NC(=O)[C@H](CCCNC(=N)N)NC(=O)[C@H](Cc2c[nH]cn2)NC(=O)[C@H](CCC(=O)O)NC(=O)CNC(=O)[C@H](Cc2c[nH]c3ccccc23)NC(=O)[C@H](CC(=O)O)NC(=O)[C@H](CCC(N)=O)NC(=O)[C@H](Cc2cn(C)c3ccccc23)NC(=O)[C@H]([C@@H](C)CC)NC1=O) [Compound 4] | < 100 nM
7 | Ac-ICIWQDWGEHRCTEGK([γGlu-C16 diacid])-NH2 (disulfide 2-12; SMILES CC[C@H](C)[C@H](NC(C)=O)C(=O)N[C@H]1CSSC[C@@H](C(=O)N[C@H](C(=O)N[C@@H](CCC(=O)O)C(=O)NCC(=O)N[C@@H](CCCCNC(=O)CC[C@H](NC(=O)CCCCCCCCCCCCCCC(=O)O)C(=O)O)C(N)=O)[C@@H](C)O)NC(=O)[C@H](CCCNC(=N)N)NC(=O)[C@H](Cc2c[nH]cn2)NC(=O)[C@H](CCC(=O)O)NC(=O)CNC(=O)[C@H](Cc2c[nH]c3ccccc23)NC(=O)[C@H](CC(=O)O)NC(=O)[C@H](CCC(N)=O)NC(=O)[C@H](Cc2c[nH]c3ccccc23)NC(=O)[C@H]([C@@H](C)CC)NC1=O) [Compound 92] | < 1000 nM
8 | Ac-SE[Sar]CI[Trp(1-Me)]QEWGEHRC[Sar]EA-NH2 (disulfide 4-14; SMILES CC[C@H](C)[C@@H]1NC(=O)[C@@H](NC(=O)CN(C)C(=O)[C@H](CCC(=O)O)NC(=O)[C@H](CO)NC(C)=O)CSSC[C@@H](C(=O)N(C)CC(=O)N[C@@H](CCC(=O)O)C(=O)N[C@@H](C)C(N)=O)NC(=O)[C@H](CCCNC(=N)N)NC(=O)[C@H](Cc2c[nH]cn2)NC(=O)[C@H](CCC(=O)O)NC(=O)CNC(=O)[C@H](Cc2c[nH]c3ccccc23)NC(=O)[C@H](CCC(=O)O)NC(=O)[C@H](CCC(N)=O)NC(=O)[C@H](Cc2cn(C)c3ccccc23)NC1=O) [Compound 90] | < 250 nM
9 | Ac-GE[Sar]CI[Trp(1-Me)]QDWGEHRCTEA-NH2 (disulfide 4-14; SMILES CC[C@H](C)[C@@H]1NC(=O)[C@@H](NC(=O)CN(C)C(=O)[C@H](CCC(=O)O)NC(=O)CNC(C)=O)CSSC[C@@H](C(=O)N[C@H](C(=O)N[C@@H](CCC(=O)O)C(=O)N[C@@H](C)C(N)=O)[C@@H](C)O)NC(=O)[C@H](CCCNC(=N)N)NC(=O)[C@H](Cc2c[nH]cn2)NC(=O)[C@H](CCC(=O)O)NC(=O)CNC(=O)[C@H](Cc2c[nH]c3ccccc23)NC(=O)[C@H](CC(=O)O)NC(=O)[C@H](CCC(N)=O)NC(=O)[C@H](Cc2cn(C)c3ccccc23)NC1=O) [Compound 88] | < 100 nM
10 | Ac-ICIWQDWGEHRCTEGK([AEEA-AEEA-γGlu-C16 diacid])-NH2 (disulfide 2-12; SMILES CC[C@H](C)[C@H](NC(C)=O)C(=O)N[C@H]1CSSC[C@@H](C(=O)N[C@H](C(=O)N[C@@H](CCC(=O)O)C(=O)NCC(=O)N[C@@H](CCCCNC(=O)COCCOCCNC(=O)COCCOCCNC(=O)CC[C@H](NC(=O)CCCCCCCCCCCCCCC(=O)O)C(=O)O)C(N)=O)[C@@H](C)O)NC(=O)[C@H](CCCNC(=N)N)NC(=O)[C@H](Cc2c[nH]cn2)NC(=O)[C@H](CCC(=O)O)NC(=O)CNC(=O)[C@H](Cc2c[nH]c3ccccc23)NC(=O)[C@H](CC(=O)O)NC(=O)[C@H](CCC(N)=O)NC(=O)[C@H](Cc2c[nH]c3ccccc23)NC(=O)[C@H]([C@@H](C)CC)NC1=O) [Compound 93] | < 500 nM
11 | H-[dY][Sar]CI[Trp(1-Me)]QDWGEHRCTEA-NH2 (disulfide 3-13; SMILES CC[C@H](C)[C@@H]1NC(=O)[C@@H](NC(=O)CN(C)C(=O)[C@H](N)Cc2ccc(O)cc2)CSSC[C@@H](C(=O)N[C@H](C(=O)N[C@@H](CCC(=O)O)C(=O)N[C@@H](C)C(N)=O)[C@@H](C)O)NC(=O)[C@H](CCCNC(=N)N)NC(=O)[C@H](Cc2c[nH]cn2)NC(=O)[C@H](CCC(=O)O)NC(=O)CNC(=O)[C@H](Cc2c[nH]c3ccccc23)NC(=O)[C@H](CC(=O)O)NC(=O)[C@H](CCC(N)=O)NC(=O)[C@H](Cc2cn(C)c3ccccc23)NC1=O) [Compound 91] | < 100 nM
12 | Ac-FCI[Trp(1-Me)]QDWGEHRCTGAESK([AEEA-AEEA-γGlu-C16 diacid])-NH2 (disulfide 2-12; SMILES CC[C@H](C)[C@@H]1NC(=O)[C@@H](NC(=O)[C@H](Cc2ccccc2)NC(C)=O)CSSC[C@@H](C(=O)N[C@H](C(=O)NCC(=O)N[C@@H](C)C(=O)N[C@@H](CCC(=O)O)C(=O)N[C@@H](CO)C(=O)N[C@@H](CCCCNC(=O)COCCOCCNC(=O)COCCOCCNC(=O)CC[C@H](NC(=O)CCCCCCCCCCCCCCC(=O)O)C(=O)O)C(N)=O)[C@@H](C)O)NC(=O)[C@H](CCCNC(=N)N)NC(=O)[C@H](Cc2c[nH]cn2)NC(=O)[C@H](CCC(=O)O)NC(=O)CNC(=O)[C@H](Cc2c[nH]c3ccccc23)NC(=O)[C@H](CC(=O)O)NC(=O)[C@H](CCC(N)=O)NC(=O)[C@H](Cc2cn(C)c3ccccc23)NC1=O) [Compound 102] | < 100 nM
13 | Ac-SEFCI[Trp(1-Me)]QDWGEHRCSEA-NH2 (disulfide 4-14; SMILES CC[C@H](C)[C@@H]1NC(=O)[C@@H](NC(=O)[C@H](Cc2ccccc2)NC(=O)[C@H](CCC(=O)O)NC(=O)[C@H](CO)NC(C)=O)CSSC[C@@H](C(=O)N[C@@H](CO)C(=O)N[C@@H](CCC(=O)O)C(=O)N[C@@H](C)C(N)=O)NC(=O)[C@H](CCCNC(=N)N)NC(=O)[C@H](Cc2c[nH]cn2)NC(=O)[C@H](CCC(=O)O)NC(=O)CNC(=O)[C@H](Cc2c[nH]c3ccccc23)NC(=O)[C@H](CC(=O)O)NC(=O)[C@H](CCC(N)=O)NC(=O)[C@H](Cc2cn(C)c3ccccc23)NC1=O) [Compound 84] | < 100 nM
